Results: patent US20140186370A1 (Kyowa Kirin, published 2014)

Target: T1, H3 protein ectodomain from vaccinia virus strain Lister with C-terminal 6-HIS tag, expressed from pET21a(+) (vaccinia virus strain Lister, UniProt P20497 1-269)
T1 chain: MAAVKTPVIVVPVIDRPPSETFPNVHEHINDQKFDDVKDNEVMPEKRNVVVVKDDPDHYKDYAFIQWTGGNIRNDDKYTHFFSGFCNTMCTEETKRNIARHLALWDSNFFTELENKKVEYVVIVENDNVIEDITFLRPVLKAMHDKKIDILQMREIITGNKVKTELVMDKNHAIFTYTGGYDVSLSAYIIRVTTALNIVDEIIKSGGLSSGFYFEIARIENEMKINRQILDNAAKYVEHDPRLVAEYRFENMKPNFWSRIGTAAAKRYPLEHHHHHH
Assay: Western blot on E. coli lysates (FIG. 12A)

B1: 130D67 human anti-H3L monoclonal antibody (antibody, V domains shown)
VH: EVQLVESGGGLVQPGRSLRLSCAASGFTFDDYAIHWVRQAPGKGLEWVSGISWNGRSIGYADSVKGRFTISRDNAKNSLYLQMNSLRAEDTALYYCAKDIGFYGSGSLDYWGQGTLVTVSS
VL: not shown
binding result: binds
